How the values were obtained:
[1] = target: Rabbit skeletal muscle actin (RMA), as filaments (rabbit) (UniProt P68135)
[2] = target: Rabbit skeletal muscle actin (RMA), as filaments (rabbit) (UniProt P68135); test: single-molecule microfluidics-assisted TIRF microscopy
[3] = target: GST-549-SNAP-N-IQGAP1 (GST-SNAP-N-IQGAP1-6His, 1-522) (UniProt P46940); test: single-molecule step photobleaching

| Substance | barbed end depolymerization rate in mf-TIRF: IC50 of N-IQGAP1 [1] [nM] | average dwell time on filament sides [2] [min] | koff [2] [s⁻¹] | stoichiometry N [3] |
| --- | --- | --- | --- | --- |
| 6His-N-IQGAP1 (1-522) (from UniProt P46940 1-522) (domain or fragment) | 0.3 | – | – | – |
| GST-549-SNAP-N-IQGAP1 (GST-SNAP-N-IQGAP1-6His, 1-522) (from UniProt P46940 1-522) (domain or fragment) | – | 6.8 | 0.0025 | 2 |
